Legend:
human Nectin-4 [1] = biological target: T1, human Nectin-4 (Homo sapiens, UniProt Q96NY8); assay: Binding to human Nectin-4 by SPR; details: for ka: SPR association constant; for kd: SPR dissociation constant; for Kd: SPR, human IgG1 isotype antibodies
T1 sequence (Q96NY8 32-510): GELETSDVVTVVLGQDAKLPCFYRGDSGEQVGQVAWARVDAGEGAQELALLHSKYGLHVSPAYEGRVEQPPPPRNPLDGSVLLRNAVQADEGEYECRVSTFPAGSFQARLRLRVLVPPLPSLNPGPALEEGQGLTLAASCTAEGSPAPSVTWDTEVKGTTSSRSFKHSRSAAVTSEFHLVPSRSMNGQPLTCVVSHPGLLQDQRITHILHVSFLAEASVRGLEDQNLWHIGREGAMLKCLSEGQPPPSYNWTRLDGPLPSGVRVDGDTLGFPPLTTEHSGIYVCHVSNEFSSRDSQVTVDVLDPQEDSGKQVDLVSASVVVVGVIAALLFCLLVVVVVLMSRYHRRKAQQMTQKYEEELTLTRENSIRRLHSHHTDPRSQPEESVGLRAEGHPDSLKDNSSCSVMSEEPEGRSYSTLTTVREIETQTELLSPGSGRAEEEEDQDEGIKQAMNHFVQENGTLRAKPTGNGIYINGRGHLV
Protocol: (§1) The antibodies in Table 3 of Example 3 were cloned as human IgG1 isotype antibodies, produced and purified, then tested for binding to human Nectin-4. Affinity of the 16 humanized variants, as well as their association and dissociation constants were assessed by SPR analysis. Table 4 summarizes all the calculated constants (Affinity constant KD (nM), association constant ka (1/Ms) and dissociation constant kd (1/s)).
as §1, with “Table 6” for “Table 3”, “Example 5” for “Example 3”, “Table 7” for “Table 4”

human Nectin-4 [2] = biological target: T1, human Nectin-4; assay: Species cross-reactivity, binding to Nectin-4
Protocol: Anti-Nectin-4 antibodies were tested by flow cytometry for binding to different CHO cell lines made to express respectively the mouse, cynomolgus and rat Nectin-4 protein (including an N-terminal V5 tag not shown in the sequences below).
Antibody 5E7 bound human, cynomolgus, as well as rat Nectin 4 proteins but lack binding to the mouse Nectin 4 protein. FIGS. 6A and 6B show binding of anti-Nectin-4 antibodies on rat and cynomolgus Nectin-4-expressing CHO cell lines.

human Nectin-4 Mutant 1 = biological target: T2, human Nectin-4 Mutant 1 (human, UniProt Q96NY8 32-510); assay: binding to HEK293T cells expressing Nectin-4 mutant; '-' means association does not occur
T2 construct: Expressed on transfected HEK293T cells; also called S58P/G59D/Q61A/N106D/P107A
T2 chain: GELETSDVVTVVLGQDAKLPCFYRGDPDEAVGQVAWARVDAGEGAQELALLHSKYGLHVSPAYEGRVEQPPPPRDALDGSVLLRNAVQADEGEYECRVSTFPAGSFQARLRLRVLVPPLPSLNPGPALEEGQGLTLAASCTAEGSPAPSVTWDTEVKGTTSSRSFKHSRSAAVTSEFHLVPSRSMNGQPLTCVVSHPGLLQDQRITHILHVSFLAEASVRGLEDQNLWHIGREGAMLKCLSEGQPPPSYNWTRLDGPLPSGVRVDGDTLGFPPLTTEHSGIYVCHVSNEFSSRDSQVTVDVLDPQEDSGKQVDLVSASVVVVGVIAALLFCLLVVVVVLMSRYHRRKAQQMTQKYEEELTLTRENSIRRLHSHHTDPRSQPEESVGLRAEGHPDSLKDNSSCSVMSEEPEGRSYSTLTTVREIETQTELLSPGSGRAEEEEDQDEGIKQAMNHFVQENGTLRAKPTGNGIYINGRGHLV

[3] = biological target: T3, human Nectin-4 expressed on cells (human, UniProt Q96NY8 32-510); assay: cell-based or functional assay
T3 sequence: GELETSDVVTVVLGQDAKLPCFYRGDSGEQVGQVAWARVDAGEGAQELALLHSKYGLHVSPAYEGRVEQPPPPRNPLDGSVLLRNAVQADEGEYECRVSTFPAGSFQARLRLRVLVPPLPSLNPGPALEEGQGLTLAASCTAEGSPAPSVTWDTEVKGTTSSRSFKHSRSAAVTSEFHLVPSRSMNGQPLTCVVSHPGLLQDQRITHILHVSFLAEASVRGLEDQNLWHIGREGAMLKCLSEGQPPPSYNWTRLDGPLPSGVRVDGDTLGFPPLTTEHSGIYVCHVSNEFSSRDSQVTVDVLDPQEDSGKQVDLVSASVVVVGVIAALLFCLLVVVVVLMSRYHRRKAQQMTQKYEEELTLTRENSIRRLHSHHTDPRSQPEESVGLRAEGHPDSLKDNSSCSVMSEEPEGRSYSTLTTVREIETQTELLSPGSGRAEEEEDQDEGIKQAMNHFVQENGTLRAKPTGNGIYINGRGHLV

[4] = biological target: T3, human Nectin-4 expressed on cells; assay: cell-based or functional assay; remark: listed apart in the source
human Nectin-4 Mutant 7 = biological target: T4, human Nectin-4 Mutant 7 (human, UniProt Q96NY8 32-510); assay: binding to HEK293T cells expressing Nectin-4 mutant; '-' means association does not occur
T4 construct: Expressed on transfected HEK293T cells; also called S195A/K197T/S199A
T4 chain: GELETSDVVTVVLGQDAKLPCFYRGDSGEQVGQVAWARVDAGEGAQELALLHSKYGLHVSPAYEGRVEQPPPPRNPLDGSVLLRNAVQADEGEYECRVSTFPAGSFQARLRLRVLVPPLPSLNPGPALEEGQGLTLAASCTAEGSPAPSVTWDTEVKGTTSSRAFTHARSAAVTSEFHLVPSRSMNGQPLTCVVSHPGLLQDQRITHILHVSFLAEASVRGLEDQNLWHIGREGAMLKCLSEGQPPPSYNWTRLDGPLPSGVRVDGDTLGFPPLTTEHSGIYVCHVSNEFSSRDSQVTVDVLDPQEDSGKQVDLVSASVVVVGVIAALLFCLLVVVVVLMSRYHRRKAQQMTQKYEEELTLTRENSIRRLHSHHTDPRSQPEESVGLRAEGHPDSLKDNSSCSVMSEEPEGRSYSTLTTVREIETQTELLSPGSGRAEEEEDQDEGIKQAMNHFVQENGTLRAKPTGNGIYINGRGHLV

[5] = biological target: T5, human Nectin-4 Mutant 7bis (human, UniProt Q96NY8 32-510); assay: as above
T5 construct: Expressed on transfected HEK293T cells; also called A72P/G73N/K197T/S199A
T5 chain: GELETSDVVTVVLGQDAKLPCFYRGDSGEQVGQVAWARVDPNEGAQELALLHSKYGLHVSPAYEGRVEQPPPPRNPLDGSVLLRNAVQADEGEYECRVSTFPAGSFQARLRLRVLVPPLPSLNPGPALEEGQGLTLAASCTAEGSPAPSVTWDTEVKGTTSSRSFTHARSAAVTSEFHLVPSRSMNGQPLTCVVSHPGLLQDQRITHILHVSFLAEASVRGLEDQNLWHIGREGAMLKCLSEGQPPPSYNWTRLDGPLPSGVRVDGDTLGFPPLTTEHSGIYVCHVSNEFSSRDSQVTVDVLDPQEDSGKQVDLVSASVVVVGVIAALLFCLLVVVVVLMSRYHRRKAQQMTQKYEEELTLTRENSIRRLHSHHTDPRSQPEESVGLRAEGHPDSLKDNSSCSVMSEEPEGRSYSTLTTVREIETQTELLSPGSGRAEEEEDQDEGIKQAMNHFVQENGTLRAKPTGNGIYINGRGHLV

B1: 5E7 (antibody, V domains shown)
VH: QVQLQQPGAELVKPGASVKLSCKASGYIFTSYWMHWVKQRPGQGLEWIGEIDPSDSYTNYNQKFKGKATLTLDKSSSTTYMQLSSLTSEDSAVYYCVRGYGNYGDYWGQGTTLTVSSASTKGP
VL: DVVMTQAAFSNPVTLGTSASISCRSSKSLLHSNGITYLYWYLQKPGQSPQLLIYQMSNLASGVPDRFSSSGSGTDFTLRISRVEAEDVGVYYCAQNLELPWTFGGGTKLEIKRTVAAP
- ka (human Nectin-4 [1]; first set (Table 4)): 480000 ± 1e-05 M⁻¹ s⁻¹
- ka (human Nectin-4 [1]; second set (Table 7)): 480000 ± 1e-05 M⁻¹ s⁻¹
- kd (human Nectin-4 [1]; first set (Table 4)): 0.0027 ± 0.0003 s⁻¹
- kd (human Nectin-4 [1]; second set (Table 7)): 0.0027 ± 0.0003 s⁻¹
- Kd (human Nectin-4 [1]; first set (Table 4)): 5.9 ± 1.2 nM
- Kd (human Nectin-4 [1]; second set (Table 7)): 5.9 nM
- binding to human Nectin 4 protein (human Nectin-4 [2]): bound

B2: N41 (antibody, V domains shown)
VH: QVQLKQSGPGLVQPSQSLSITCTVSGFSLTNYGVHWVRQSPGKGLEWLGVIWSGGSTDYNAAFISRLSISKDTSKSQVFFKMNSLQADDTAIYYCARELIHAMDNWGQGTSVTVSS
VL: DIQMTQSPASLSVSVGETVTITCRASENIYSNLAWYQQKQGNSPQLLVFAATNLADGVPSRFSGSGSGTQYSLKINSLQSEDFGTYYCQHFWGTPTFGGGTKLEIK
- binding result (human Nectin-4 Mutant 1): no binding

B3: chimeric parental 5E7 antibody (antibody, V domains shown)
VH: QVQLQQPGAELVKPGASVKLSCKASGYIFTSYWMHWVKQRPGQGLEWIGEIDPSDSYTNYNQKFKGKATLTLDKSSSTTYMQLSSLTSEDSAVYYCVRGYGNYGDYWGQGTTLTVSS
VL: DVVMTQAAFSNPVTLGTSASISCRSSKSLLHSNGITYLYWYLQKPGQSPQLLIYQMSNLASGVPDRFSSSGSGTDFTLRISRVEAEDVGVYYCAQNLELPWTFGGGTKLEIKR
notes: Chimeric antibody, murine variable domains with human constant regions; also called ch5E7; CHG1-M-1N4-5E7
- internalization efficiency on MDA-MB-468, normalized to chimeric parental antibody (Fab-ZAP, CTG), first column [3]: 100 % of chimeric parental
- internalization efficiency on MDA-MB-468, normalized to chimeric parental antibody (Fab-ZAP, CTG), second column [3]: 100 % of chimeric parental
- internalization efficiency on SUM190, normalized to chimeric parental antibody (Fab-ZAP, CTG), experiment 1 [4]: 100 % of chimeric parental
- internalization efficiency on SUM190, normalized to chimeric parental antibody (Fab-ZAP, CTG), experiment 2 [4]: 100 % of chimeric parental
- binding result (human Nectin-4 Mutant 7): no binding
- binding result [5]: no binding

From patent US20250297004A1, “NECTIN-4 BINDING AGENTS” (INNATE PHARMA, priority 2022, published 2025)
